This is an account of results in US20030163841A1 (YALE UNIVERSITY, published 2003).

Data set [1] deals with the molecule itself. The data set is described as follows: yeast two-hybrid, LacZ reporter. The source says:
(C) Delimitation of Cop1 self-association domain utilizing the yeast two-hybrid system. For baits (Bait), Cop1 domain fragments were fused with the LexA DNA binding domain (LexA). For preys (Prey), the COP1 domain fragments were fused with the synthetic transcription activation domain (AD). Numbers and names at the left indicate a pairwise combination of bait and prey constructs in each row. The graph at the right indicates the relative LacZ reporter activity in yeast cells corresponding to combinations of bait and prey constructs presented in each row. For each pairwise combination, at least 8 individual transformants were used to measure the LacZ activity. Error bars represent standard deviation. Combination 1 (LexA: N282) and 2 (N282:AD) serve as negative controls.
pKS-RING and pKS-Coil are digested with EcoRI and XhoI, and rest of the COP1 domain cassettes in the pKSm vectors were digested with EcoRI. Fragments were then ligated into pEG202 or pJG4-5 to generate COP1 domains fused to the LexA DNA binding protein or the synthetic activation domain, respectively (Golemis et al., 1995). Generation of pEG-N282, pJG-N282, pJG-COP1, and pJG-ΔRING was described elsewhere (McNellis et al., 1996; Ang et al., 1998). To generate pJG-GUS-ΔRΔC, pRTL-GUS-ΔRΔC was cleaved with NcoI and XbaI and then ligated into NcoI/XbaI digested pKS-COP1. […]

Data set [2] concerns the molecule itself. The data set is described as follows: chemical cross-linking (DSub or EGS) of in vitro translated protein, SDS-PAGE, fluorography. How it is done:
Protein immunoblot analysis was performed exactly as described previously (McNellis et al., 1994a). pAR-COP1 , a FLAG-tagged COP1 that has an additional peptide […] at the N-terminus (Matsui et al., 1995), was in vitro transcribed and translated using TNT coupled reticulocyte lysate system (Promega) and radiolabelled with [³⁵S]methionine (Amersham). For chemical cross-linking, 2 μl of translation mix (with radiolabelled proteins) was diluted to 18 μl with a reaction buffer (100 mM potassium phosphate [pH 7.7]; 100 mM NaCl; 0.1 mM ZnSO₄; 10% glycerol; 0.1% NonidetP-40; 4 mM DTT) and cross-linked with 2 μl of freshly diluted Dsub or EGS in dimethyl sulfoxide. For a negative control, 2 μl of dimethyl sulfoxode was added to the reaction. After 20 min incubation at room temperature, the reaction was quenched by addition of 2 μl of 1 M glycine (for Dsub) or 200 mM lysine (for EGS) and 22 μl of 2× Laemmli SDS-PAGE buffer. Samples were boiled for 5 min, separated by 6% SDS-PAGE, and fluorographed after treatment with Amplify (Amersham).
To better understand the COP1 self-association, we performed a chemical cross-linking analysis of in-vitro translated COP1 protein in solution. A FLAG-COP1 epitope tagged protein was in-vitro translated and then cross-linked with either dimethylsuberimidate (DSub) or ethylene glycobis (succinimidylsuccinate) (EGS). […]

Data set [3] concerns the molecule itself. The data set is described as follows: gel filtration (Superdex-200) of seedling extracts, immunoblot of fractions. How it is done:
For gel filtration chromatography, 8-day-old light- or dark grown seedlings were homogenized with 2× gel filtration buffer containing 50 mM Tris-HCl (pH 7.5), 440 mM NaCl, 2 mM MgCl₂, 2 μM ZnSO₄, 0.5 mM PMSF and centrifuged for 5 min at 4° C. Total soluble protein was fractionated through a 25 ml Superdex-200 FPLC column (Pharmacia) with 1× gel filtration buffer at a flow rate of […]. All procedures were carried out at 4° C. and, for dark samples, under dim green safe light. Consecutive fractions of 0.5 ml each were collected after the void volume (7.5 ml), concentrated, and subjected to 10% SDS-PAGE followed by a protein immunoblot analysis. The molecular weight standards for size estimation of the native COP1 protein were as follows: blue dextran (void); thyroglobulin (669 kDa); ferritin (440 kDa); catalase (232 kDa); aldolase (158 kDa); BSA (67 kDa); ovalbumin (43 kDa); and ribonuclease A (13.7 kDa) (Sigma).
To confirm the presence of COP1 dimers in vivo, a gel-filtration analysis was performed using protein extracts from light- or dark-grown Arabidopsis wild-type seedlings. […] However, the COP1 peak was very broad and contained a broad shoulder toward the larger molecular size fractions (FIG. 1B). Therefore it is possible that a portion of COP1 may present as homo-oligomers or in heterogeneous associations with other molecules in vivo. […]

B1: Coil domain of COP1 (pKS-Coil cassette) (other)
chain: MDKLLKKTSARHVSKTASPLDQFREALQRGCDVSIKEVDNLLTLLAERKRKMEQEEAERNMQILLDFLHCLRKQKVDELNEVQTDLQYIKEDINAVERHRIDLYRARD
notes: The cassette used in yeast starts at aa104 (L104M); Fused to LexA or AD in yeast; also called coiled-coil domain
Consider B1, for which, in data set [1], the binding result was “binds”.

B2: FLAG-COP1 epitope tagged protein (pAR-COP1), in vitro translated and [35S]methionine labelled (other, Arabidopsis)
chain: DDADTKDDDDKMEEISTDPVVPAVKPDPRTSSVGEGANRHENDDGGSGGSEIGAPDLDKDLLCPICMQIIKDAFLTACGHSFCYMCIITHLRNKSDCPCCSQHLTNNQLYPNFLLDKLLKKTSARHVSKTASPLDQFREALQRGCDVSIKEVDNLLTLLAERKRKMEQEEAERNMQILLDFLHCLRKQKVDELNEVQTDLQYIKEDINAVERHRIDLYRARDRYSVKLRMLGDDPSTRNAWPHEKNQIGFNSNSLSIRGGNFVGNYQNKKVEGKAQGSSHGLPKKDALSGSDSQSLNQSTVSMARKKRIHAQFNDLQECYLQKRRQLADQPNSKQENDKSVVRREGYSNGLADFQSVLTTFTRYSRLRVIAEIRHGDIFHSANIVSSIEFDRDDELFATAGVSRCIKVFDFSSVVNEPADMQCPIVEMSTRSKLSCLSWNKHEKNHIASSDYEGIVTVWDVTTRQSLMEYEEHEKRAWSVDFSRTEPSMLVSGSDDCKVKVWCTRQEASVINIDMKANICCVKYNPGSSNYIAVGSADHHIHYYDLRNISQPLHVFSGHKKAVSYVKFLSNNELASASTDSTLRLWDVKDNLPVRTFRGHTNEKNFVGLTVNSEYLACGSETNEVYVYHKEITRPVTSHRFGSPDMDDAEEEAGSYFISAVCWKSDSPTMLTANSQGTIKVLVLAA
notes: range 1-675; Monomer 78 kDa, cross-linked product about 160 kDa; A second, lower band may start at an internal methionine of COP1; also called FLAG-tagged COP1
Regarding B2, in data set [2], the binding result was “binds”.

B3: endogenous Arabidopsis COP1 protein (extracts of wild-type seedlings) (other, UniProt P43254 1-675, looked up)
chain: MEEISTDPVVPAVKPDPRTSSVGEGANRHENDDGGSGGSEIGAPDLDKDLLCPICMQIIKDAFLTACGHSFCYMCIITHLRNKSDCPCCSQHLTNNQLYPNFLLDKLLKKTSARHVSKTASPLDQFREALQRGCDVSIKEVDNLLTLLAERKRKMEQEEAERNMQILLDFLHCLRKQKVDELNEVQTDLQYIKEDINAVERHRIDLYRARDRYSVKLRMLGDDPSTRNAWPHEKNQIGFNSNSLSIRGGNFVGNYQNKKVEGKAQGSSHGLPKKDALSGSDSQSLNQSTVSMARKKRIHAQFNDLQECYLQKRRQLADQPNSKQENDKSVVRREGYSNGLADFQSVLTTFTRYSRLRVIAEIRHGDIFHSANIVSSIEFDRDDELFATAGVSRCIKVFDFSSVVNEPADMQCPIVEMSTRSKLSCLSWNKHEKNHIASSDYEGIVTVWDVTTRQSLMEYEEHEKRAWSVDFSRTEPSMLVSGSDDCKVKVWCTRQEASVINIDMKANICCVKYNPGSSNYIAVGSADHHIHYYDLRNISQPLHVFSGHKKAVSYVKFLSNNELASASTDSTLRLWDVKDNLPVRTFRGHTNEKNFVGLTVNSEYLACGSETNEVYVYHKEITRPVTSHRFGSPDMDDAEEEAGSYFISAVCWKSDSPTMLTANSQGTIKVLVLAA
notes: range 1-675; Gel filtration peak at about 160 kDa is read as a dimer; The peak is broad, so oligomers, other partners and some monomer are not excluded; also called native COP1 protein
On to B3, for which the binding result in data set [3] is on record as “binds”.
